# Results from the DeepSol protein solubility set.
# Experiment: soluble on expression in E. coli; label from the status in PepcDB or PDB records
row,Sequence,soluble on expression in E. coli
1,MGSDKIHHHHHHMSTSSGERVTVGTATASPGEAVRGAIPAGDLAGGVKVEIPVVVINGGGAGPTFWVNAAIHGDEPEGPLACALAVKQIDPAKLRGTVVMVPCVNPLAFSAAERGNPLDTFTYDMNRIYPGKPDGYFSDRVADAHWQAMKDVADLEISIHSGGAHSFLDKAIFVDERPESVELAKAMGEGWGCIMSNFTKAGSPMAAMNNAGKVDITVELGGRSYTSPDRFRYVGEELAKSILNICYHYDMLDGQATYPTDATIGQQEALLAPASGIFLPEPGVDFLTMMDNGTKIARIINIFGDEVGALHAPARGMFFGLRALPNVNQGDWCCFFNKVEGPRD,not soluble
2,MGSDKIHHHHHHMSTVAFHTLGCKVNHYETEAIWQLFKEANYERVDFEANADVFVINTCTVTNTGDKKSRQIIRRAIRQNPDAVICVTGCYAQTSSAEIMEIPGVDVVVGTQDRHKLLGYIDEFRKERQPINGVGNIMKNRKYEELDVPYFTDRTRASLKIQEGCNNFCTFCIIPWARGLMRSRDPEKVVEQATQLVNSGYKEIVLTGIHTGGYGQDLKDYNLAQLLRDLETINGLERIRISSIEASQLTDEVIDVLERSTKVVRHLHIPLQSGSDTVLKRMRRKYTMDRFSERLTKLHKALPDLAVTSDVIVGFPGETEAEFQETYDFIVKHKFSELHVFPYSPRIGTPAARMDDQIDEEIKNERVHKLITLSNQLGKLYASKFDQDVLEVIPEEQGDTEGTLVGYADNYMKVQFEGDESLIGQIVKVKITQANYPLNEGQAIKVVDFATNKSDREVLV,not soluble
3,MGSDKIHHHHHHMSTVTTGRTLDANGDPVPGTGFELDPDSQFADRVRERTGPVTSHPTRPVWGIPLEGSGDTIRTLSVFGPGYGGPPEHYHEQSPERFEVERGSLTMMLDGTDHEVTAGETATVETGVTHTFRNDTDKRAVVITNIYSPGRLRQVLPTLGGLAHDDEGNPENPLQQALVADRLDGNTVFTRQERLEPLSRLLTPVAELAGYQGAYAKYTQPAFWERHVEQPDL,not soluble
4,MGSDKIHHHHHHMSVMFDPQAAIYPFPPKPTPLNDDEKQFYREKIKRLLKERNAVMVAHYYTDPEIQQLAEETGGCISDSLEMARFGTKHAASTLLVAGVRFMGETAKILSPEKTILMPTLAAECSLDLGCPIDEFSAFCDAHPDRTVVVYANTSAAVKARADWVVTSSIAVELIEHLDSLGEKIIWAPDRHLGNYVQKQTGADVLCWQGACIVHDEFKTQALTRLKKIYPDAALLVHPESPQSIVEMADAVGSTSQLIKAAKTLPHRQLIVATDRGIFYKMQQAVPEKELLEAPTAGEGATCRSCAHCPWMAMNGLKAIAEGLEQGGAAHEIQVDAALREGALLPLNRMLDFAATLRA,not soluble
5,MGSDKIHHHHHHMSVTNVTREELWAKQHLSCKNMDYAVWERDKSMLQKLSRINGGCSFVVDVYKGCYAYASTGFVDWLGYDRHKIETLEKQGDYLESRIHPHDRSQLEDLQVRLGKFIYNQPFEHRNDYCNVYSFRILNARGNYVRVTSRHQVLEQSHDGKAWLIIGNMSMAPGQKESEQVECTVLNLRNGEMFSPGVVIMNPAFGLTGREMEILRLIQRGFLSKEIADKLCISIHTVHIHRQNLLRKLGVQNSLEAIRLGQESGLLS,not soluble
6,MGSDKIHHHHHHMSVVDFSKLYPDNRQEGETVLRQAQLVMLRMLKIIDYICRKHDISYWMCSGTLLGAVRHKGFIPWDDDLDICMIREDYERFVEIAVNEFPEDMMLQTRETDPHYHYLPLPCKVRDKKSFILSPGYEDEECEKGLFIDIFPMDRYHKQKLPFMFEKMVKVYNTFICKSLDAIYFKDESIDKKILAFFHPVFHKLVLQYMKFAKKLIDKNRGLGTDCRLGHGFDTLWKRYLRFDDIFPVVEIDFEDSKFFAPHRPDVYLTTLYGPNYMTPPPEKQRLAAQHAHEIKPII,not soluble
7,MGSDKIHHHHHHMSYRLNIENLREFMSETSDSCEHLVFPQKRGIYRAQKEWIASGITLFKCTLRAEDEVVIEQKESAFFGGAFIHVVLEGGVSFETSQPKGSFEYRRGYTTAMEALHPSGITRVARGVSVHSIGIHIHEDFLRSREIEWKKIAKEPRLLPSNPKVEWIAKSLYQGRGGAQSDADRLRVESQILEILSCELQREETRGGMERVKLSGYDLEALHKARVILEQNLKNPPSLIELSRAIHLNEFKLKFGFKRLFGVAPYEMLFLFRMQRARGLLEEGIFSVGEVAKEVGYAQQSSFSAAFFRHFGVLPKEVAKSWKD,not soluble
8,MGSDKIHHHHHHMTAASSVSAPGAPTIGVDFGTTNTVVSLTLGDDQARLVRYSINNRDLFAFRSALSFHSVQGVGEAANERVVEAGPWAIEAYLEDPLETRFIQSFKTFAASAAFTETRILNKRYQFEDLLAAFLLRLRDHAGAQLSELPPRIIVGRPVTFAGSSPDEALALTRYEAAFERLGFTDIRYAYEPVGAAFFFARQLKQDATVLVADFGGGTSDFSLVRFERAADGTLRSTPLSRSGVGVAGDAFDYRIIDQLVSPELGKGSDYRSFSNSLPIPQRYYAAFARWDQLALLRASKDMRDIRALERTAVEPDKIAALIEVLDGNHGYALYRSVSALKEALSSQDQATFRFEAGSVRIEKPVARVEFEAWIAPELAAIETAVGQALDQADLTEAGVDRVFLTGGSSFVPAVREIFLRRFGADKIETGGEFESIASGLALIGREADLDLWTMRAG,not soluble
9,MGSDKIHHHHHHMTALTPAAFHSDRNRHDAHVARIREVRPGLRIHSDDATDEFDAVMSGQCSPGLHLVLLLEGALDVSYGSRRVVLTTDGRRTGRADRDAVRPAVRMQSFLLNAVEPDTFRRRLSKGGYARRLSLAMSGEWLGHLQAASRGVLPEQLGTMLSAHLAIRFWQPTPRATALAEQIVRPPAYQPMLQAIYLESRVLELLAEAFTPLETDAAQAADASLGSRDYRRMAELRAFLASDAAQALSIDDIARHAGMSANAMQRQFRAAYGTTVFDFVREHHLQRARLALERDAVSVKQAAALAGYTSAANFATAYKRRFGVTPTLARRSDKR,not soluble
10,MGSDKIHHHHHHMTAPLKSLFLLDPSVTYLNHGAYGATPRPVFERHVQWQYELEREPVDFLSRRFAERMAQARAILAEYVDTERDNLVYVSNGTTGVNIVARSLPLGPGDELLTTDHEHGGIERLWRFTAQKRGFEIVRHKVSLPVTTHARFVEDFWRDVTPRTRAILISQLTSPTALVFPVAAICARARARGILTIVDGSHVPGQLPLSLREMDPDFYVGILHKWVCAPKGSAFLYARPDVQPLVEPLVVSWGWEPKNPGPSKFVEYHEWQGSRDISAFLSVPSAIAFQREHDWDGVRKRCIALASDAQREVAALTREPLYHPPGAHEWHGQMVCAQLPPQTDDIALLARLRNECGIDVSVDRFGGRPRIRVSIQGYNGPDDVDRLLGSLKQLLRL,not soluble
11,MGSDKIHHHHHHMTDRVLILGGRGRIGSSVAQDLANHTQAQITITGRSAEFGKAVSLSSGGQVQFLVLDLVEVDKLQNAIANSNLVIHCAGPFHYRDTNVLETCIAQGVNYVDVSDHRSYTSKALNFSEQAAAAGVTAIINTGIFPGISNSMVRQGVEQFDKPENIHLSYLVSGSGGAGITVMRTTFLGLQYPFETWIDGKWQVIKPYSERELVEFPPPYGRSGVYWFDMPETFTLPKAFPSVKTVITKFGSVPDFYNHLTWIAAHIFPKWLMQRRYMIEFLSHVSHSMTDVTNNFSGIGVAVRSEVTGQKDGKTAVYCSTVVHENTALASGCGTGSIAQLLLEGKLKKPGVFAVEEALPTDLFEEVMQSRGIKINHSWL,not soluble
12,MGSDKIHHHHHHMTEFEVHIDLGGSTFPVGLARCNRVRGTERILFEYDAEWLASPDRFSLEPALALTRGAFAPPAGMTSFGSIGDSAPDTWGRRLMQRAERRRAAREGRSVRTLAESDYLLGVSDETRLGALRFRRVGETSFQAPIQAGVPALVELGRLLQVTERVLRDEETDEDLQLIFAPGSSLGGARPKASVIDQYGHLAIAKFPKDTDEYSVETWEEIALRLANQAGIVTPQHELVDVGGRAVMLSRRFDRDGTIRIPFLSAMAMMGARDGEPGSYPEMVDALTAHGAQGKTDAHALYRRVVFSVMISNVDDHLRNHGFLWLGNAGWSLAPAYDLNPVPSDLKARVLTTNIDLDESTCSVDLLEAASGYFGLTLANARRIIKDVASVTATWRNTARAVGARPAEIERMASAFEHDDLQHGLAL,not soluble
13,MGSDKIHHHHHHMTENKNEKLGWINGHWGVFKDLKVPINDRGLNFADGIFETILILNGIPQLLDEHLNRWEKSASILEMNSPPSKEWLISLVEDGINQAQLKNINGVIRINWTRGESEQRGIDISKTSLHSFWLEIDSYQPNFESISTIISQTERRNSFSRLSSCKTFSYNQGIQARIEAKNLGFNDALLLNSQGEICCATTANILVKRENNWLTPPSNSGCLPGIMRQRGIELNIIKEALIEATPKDNDEWFLINSLSCRPIQKINKKELKISTNPKEFWLSLLKI,not soluble
14,MGSDKIHHHHHHMTFMPEKRNADLLFRGFSKTRLMVITLIAVNGPMTVTQLSKVIKTTRSNLYQAIKEMVSDGILVQTRTVSEKNYVEKFYDINTDLFDAIKYGDIRKAIEEMDEDKLRNILYSFLRSASAILSIMAEQVNLSNKDDLDKYVDYVRKNLLIISFSTHSTKDMSKFSSMLSNFFTEIDDDNDEKKDEHLLYIVGFPILNQMGFISKSRHEKLTGDGKE,not soluble
15,MGSDKIHHHHHHMTGFYEFFSLPDRVEVVCPLCDGCATFTYAHVLQIEKKDAHLFENEQFEIKLFNQRFAHKWPCVLFFPPLFGAVSWREKFPEKYQGASTWEHRANSAFTDGTDLGLICCHQCMAKQKHQLEWPQDAFYSIEFKGHLLWAFNKMMMQQIRDYIQAKDRDAVFASEPIVIRHLPTVFKLAKNREGLVKKINKLIYRP,not soluble
16,MGSDKIHHHHHHMTGNDWIGSALHNSITCMGHSAAALAAPFAQASRRLIATLQAGGQVLSCGNGGSSGDAQHLASELVNRFETTRRALPAIALSTDSSVVTAIANDVCYEQIFARQIEALGRPGDCLVAFSTSGNSTNVIAAARTAQQRGMWVLALTGKEGGQLALLLRPVDIELRVPEQNTARIQEVHLVLIHALCSGVDASFVGDAPASVFHTGQVLRDWEALDEACTFRRPLVFTNGVFDVLHRGHVQYLAEARAEGACLVVGVNSDASVRRLGKGADRPVNSEEDRMAVLAGLQAVDFVTVFDDDTPLKLIQHLQPDVLIKGGDWPIERIVGADWVQAGGGRVLSIPFRHERSTTALLQKIRGSQP,not soluble
17,MGSDKIHHHHHHMTGQMNILLANPRGFCAGVDRAISIVERALELFSPPIYVRHEVVHNRYVVQNLKDRGAIFVEELDQVPDNSIVIFSAHGVSQAVRAEAKKRGLKVFDATCPLVTKVHLQVTRASRKGVECILIGHEGHPEVEGTMGQYDNPEGGVYLIESVEDVEALQVKDPENLCFVTQTTLSVDDTLDIIAALQAKFPSIEGPRKDDICYATQNRQDAVRSLATQAKLFIVVGSKNSSNSNRLRELAEKSGAQAYLVDSAADVKAEWFANVDKVAVTAGASAPEVLVKQVIDAITHLAPSVVTEVEGRKEDVVFAVPVELR,not soluble
18,MGSDKIHHHHHHMTHYKNNIDEAATLINSEGSAWNAINPESVARMRLQNRFKTGLDIAKYTAKIMREDMDNYDKDTSQYTQSLGCWHGFIAQQKMISIKKHLLTTKRRYLYLSGWMVAALRSEFGPLPDQSMHEKTSVAALIKELYTFLRQADARELGGLFRELDSAKESDKAAIQHKIENFETHVVPIIADIDAGFGNEEATYLMAKQMIEAGACCIQLENQVSDVKQCGHQDGKVTVPHVEFLAKINAVRYAFLELGIDDGVIVARTDSLGAGLTQKIAVTKEAGDLGDLYNSFLEVEAVDAAKLENGDVVFKQGGKLVKPARLPNGLFKFRAGTGEERCVLDCITSLQNGADLLWIETEKPHVSQIGGMVNEIRKVVPNAKLVYNNSPSFNWTLNFRQQVFDAMQKAGQDVSAYDRAQLMSVDYDGTELAIQADEKIRTFQSDSAREAGIFHHLITLPTYHTAALSTDNLAKEYFGDQGMLGYVANVQRKEIRQGIACVKHQNMAGSDIGDAHKEYFSGDQALKASGKDNTMNQF,not soluble
